Data published in PMC7820290.

Target: SARS-CoV-2 nucleocapsid (N), wild type (SARS-CoV-2, UniProt P0DTC9 1-419)
Assay: co-condensation microscopy; 10 uM N, maximal at 5 uM RNA, reentrant
Details: protein: recombinant; tags: N-terminal His6 cleaved by TEV; Cys inserted before residue 1 in the dye-labelled fraction; chain copies: 2; label: 6-FAM (fluorescein)

Binder: AAGCAGCUAAGAGCGAA (ssRNA) [17-mer RNA]
- binding result: binds
